Source: patent publication US20150132307A1 (Hoffmann-La Roche, published 2015)

T1: Human recombinant soluble TWEAK (Example 6) (human, UniProt O43508 99-249, limits assumed)
T1 sequence: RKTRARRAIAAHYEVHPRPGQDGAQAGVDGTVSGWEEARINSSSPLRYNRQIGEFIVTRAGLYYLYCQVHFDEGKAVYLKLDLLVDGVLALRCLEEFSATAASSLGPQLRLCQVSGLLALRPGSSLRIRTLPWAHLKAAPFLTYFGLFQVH

T2: human Flag-tagged soluble TWEAK (amino acids 106-249) (human, UniProt O43508 106-249)
T2 construct: The sentence gives amino acids 106-249 without naming the entry; also called Human TWEAK; not shown: Flag tag
T2 sequence: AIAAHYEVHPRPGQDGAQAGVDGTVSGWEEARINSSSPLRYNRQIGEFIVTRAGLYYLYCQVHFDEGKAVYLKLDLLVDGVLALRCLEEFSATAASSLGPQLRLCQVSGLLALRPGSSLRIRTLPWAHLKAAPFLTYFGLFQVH

T3: Mouse soluble TWEAK (untagged, Example 5) (mouse, UniProt O54907 105-249, limits assumed)
T3 construct: also called Murine TWEAK
T3 sequence: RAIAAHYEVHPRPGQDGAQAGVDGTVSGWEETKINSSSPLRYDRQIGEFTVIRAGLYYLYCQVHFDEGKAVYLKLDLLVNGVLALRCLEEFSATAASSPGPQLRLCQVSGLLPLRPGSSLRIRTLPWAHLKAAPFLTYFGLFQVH

T4: Biotinylated human soluble TWEAK (amino acids 99-249 of SEQ ID NO: 68) (human, UniProt O43508 99-249, biotinylated)
T4 construct: also called Human TWEAK
T4 sequence: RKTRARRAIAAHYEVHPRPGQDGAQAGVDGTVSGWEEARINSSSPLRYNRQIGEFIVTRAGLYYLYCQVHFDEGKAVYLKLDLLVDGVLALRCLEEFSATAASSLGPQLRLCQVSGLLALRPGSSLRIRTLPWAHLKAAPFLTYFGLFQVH

T5: Recombinant human TWEAK (R&D Systems; Cat. #1090-TW/CF) (human, UniProt O43508 97-249, limits assumed)
T5 sequence: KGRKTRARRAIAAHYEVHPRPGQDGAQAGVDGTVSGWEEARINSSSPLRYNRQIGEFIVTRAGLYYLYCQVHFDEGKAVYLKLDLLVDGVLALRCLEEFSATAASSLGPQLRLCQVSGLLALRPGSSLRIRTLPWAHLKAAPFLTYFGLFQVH

T6: IL-17 F/F (human, UniProt Q96PD4 31-163)
T6 construct: read as the homodimer of IL17F
T6 sequence: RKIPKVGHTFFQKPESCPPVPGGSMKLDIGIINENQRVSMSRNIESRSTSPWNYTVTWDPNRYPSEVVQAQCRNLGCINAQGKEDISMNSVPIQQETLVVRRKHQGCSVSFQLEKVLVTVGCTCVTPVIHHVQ


Key:
[1] = biological target: T1, Human recombinant soluble TWEAK …; assay: cell-based or functional assay
[2] = biological target: T2, human Flag-tagged soluble TWEAK (amino …); assay: receptor interaction ELISA: Flag-TWEAK 2.5 ng/ml preincubated with antibody, then on coated human Fn14:Fc (competitor m21)
Description: 96-well Maxisorp® plates (Nunc) were coated with 100 μl 1 μg/ml human Fn14:Fc (extracellular domain of human Fn14 (amino acids 1-75 of SEQ ID NO: 98) fused to Fc portion of human IgG1) in PBS per well for 1.5 h at room temperature and blocked with a solution of 5% FBS in PBS for 30 minutes at room temperature under shaking. […] After washing the Fn14-coated plate once with wash buffer (0.1% Tween® 20 in PBS), 100 μl of the TWEAK-antibody solution were transferred to each well and the plate was incubated for 1 h at room temperature, followed by four washes with wash buffer. Wells were filled with 100 μl of anti-FLAG-HRP detection antibody, diluted 1:5000 in blocking buffer, and incubated for 1 h at room temperature. After four more wash steps, the signal was developed by addition of 100 μl 3,3,5,5-Tetramethylbenzidine (TMB) solution for approximately ten minutes. The reaction was stopped by adding 100 μl of 1 N HCl, and absorbance measured at 450 nm (reference wavelength 620 nm).

[3] = biological target: T3, Mouse soluble TWEAK (untagged, Example …); assay: receptor interaction ELISA: mouse soluble TWEAK 4 ng/ml preincubated with antibody, then on coated mouse Fn14:Fc (competitor m22)
Description: Briefly, Maxisorp plates were coated with mouse Fn14:Fc (extracellular domain of mouse Fn14 (amino acids 1-75 of SEQ ID NO: 98) fused to Fc portion of human IgG1) as described above for human Fn14:Fc, followed by blocking and washing. […] After 1 h of incubation at room temperature and four washes, biotinylated anti-mouse TWEAK antibody at 125 ng/ml in blocking buffer was added for 1 h at room temperature, followed by another four wash steps. The TWEAK antibody was detected by incubation with streptavidin-HRP, diluted 1:5000 in blocking buffer, for 30 minutes at room temperature. Signal was developed and absorbance measured as described above.

[4] = biological target: T4, Biotinylated human soluble TWEAK (amino …); assay: SPR (Biacore 2000), biotinylated soluble TWEAK on streptavidin chip, antibody 100 nM as analyte, 25 C
Description: A Biacore 2000 instrument was used with a Biacore streptavidin coated sensor mounted into the system. The system buffer HBS-ET (10 mM HEPES pH 7.4, 150 mM NaCl, 1 mM EDTA, 0.05% Tween® 20) was used at a flow rate of 100 μl/min. The sample buffer was the system buffer. Biotinylated human soluble TWEAK (amino acids 99-249 of SEQ ID NO: 68) and biotinylated murine soluble TWEAK (amino acids 81-225 of SEQ ID NO: 69) was immobilized on different flow cells on the SA sensor at 150 RU each. The flow cell FC1 was used as a blank reference cell. Each antibody was injected into the system as an analyte at 100 nM at 100 μl/min for 2 min association time. The dissociation of the immunecomplexes were monitored for 5 min. The sensor surface was washed with HBS-ET for 10 seconds and regenerated using 2×2 minutes injections with 10 mM glycine pH 2.25. This procedure was done at 25° C. The kinetically rate limiting step of the complex dissociation phase in the interval [240 s-300 s] was taken to calculate the dissociation rate kd [1/s] (Biacore Evaluation Software 4.0). According to the equation t1/2 diss=ln(2)/(60×kd), the half-life of the immunocomplexes in minutes was calculated.

[5] = biological target: T5, Recombinant human TWEAK (R&D Systems; …); assay: cell-based or functional assay
[6] = biological target: T6, IL-17 F/F; assay: SPR (BIAcore T100), antibody captured by anti-human F(ab')2, IL17 as analyte, 25 C
Description: (§1) Around 12000 resonance units (RU) of the capturing system (10 μg/ml goat anti human F(ab′)2; Order Code: 28958325; GE Healthcare Bio-Sciences AB, Schweden) were coupled on a CMS chip at pH 5.0 by using an amine coupling kit supplied by the GE Healthcare. The sample and system buffer was PBS-T (10 mM phosphate buffered saline including 0.05% Tween20) pH 7.4. The bispecific antibody was captured by injecting a 50 nM solution for 1 min at a flow of 10 μl/min. Association was measured by injection human IL17 in various concentrations in solution for 3 min at a flow of 30 μl/min starting with 50 nM in 1:1 dilutions. The dissociation phase was monitored for up to 5 min and triggered by switching from the sample solution to running buffer. The surface was regenerated by two times 60 sec. washing with a glycin pH 2.1 solution at a flow rate of 30 μl/min. Bulk refractive index differences were corrected by subtracting the response obtained from a goat anti human F(ab′)2 surface. Blank injections are also subtracted (=double referencing). For calculation of apparent KD and other kinetic parameters the Langmuir 1:1 model was used.

[7] = biological target: T7, IL-17 A/F (human, UniProt Q16552 24-155; Q96PD4 31-163); assay: SPR (BIAcore T100), antibody captured by anti-human F(ab')2, IL17 as analyte, 25 C, 1:1 model
T7 construct: read as the heterodimer of IL17A and IL17F
T7 sequence (Q16552 24-155 limits assumed, one chain of several): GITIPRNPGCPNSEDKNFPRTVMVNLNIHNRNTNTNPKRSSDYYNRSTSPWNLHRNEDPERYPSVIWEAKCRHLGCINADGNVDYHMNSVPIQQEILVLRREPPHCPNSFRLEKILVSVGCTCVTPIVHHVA
Description: as §1

[8] = biological target: human IL17A/A (human, UniProt Q16552 24-155, limits assumed); assay: SPR (BIAcore T100), antibody captured by anti-human F(ab')2, IL17 as analyte, 25 C, apparent KD, 1:1 model
Sequence of human IL17A/A (Q16552 24-155 limits assumed): as the sequence (Q16552 24-155 limits assumed, one chain of several) above
Description: as §1

[9] = biological target: recombinant human IL-17 (Peprotech #200-17) (human, UniProt Q16552 20-155); assay: cell-based or functional assay
Sequence of recombinant human IL-17 (Peprotech #200-17) (Q16552 20-155 limits assumed): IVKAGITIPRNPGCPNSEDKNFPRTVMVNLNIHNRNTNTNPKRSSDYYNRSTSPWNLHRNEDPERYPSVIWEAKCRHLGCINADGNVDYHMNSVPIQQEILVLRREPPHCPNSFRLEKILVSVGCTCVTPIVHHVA

Inhibition of IL-8 Secretion IC50 [ng/ml] (A375 cells) [1] [ng/mL]	IC50 [2] [ng/mL]	IC50 [3] [ng/mL]	t/2 diss [min] 25° C. [4] [min]	IC50 (nM) per valency, Tweak induced HFLS proliferation (CellTiter Glo) [5] [nM]	Binder	also measured
104	2.6		147		<TWEAK> 305chi (antibody, human IgG1, kappa, V domains shown, Chimer: rabbit variable domains with human kappa and human IgG1 constant regions) VH: QEQLVESGGGLVQPGGSLTLSCKASGFDFSTYYMSWVRQAPGKGLEWIGTVYVRQGTTYYASWLNGRFTISSDNAQNTVDLKMNSLTAADTATYFCAKGGYNYDDAFVIWGPGTLVTVSF VL: AIEMTQTPFSVSAAVGGTVTINCQASQNIYSNLAWYQQKPGQPPKLLMYTASYLASGVPSRFKGSGSRTEYTLTISGVQCADAATYYCQTAYYNSRPDTVAFGGGTEVVVKR	
				0.065	Bispecific <Tweak-IL-17> #2 antibody (bispecific antibody, human IgG1, kappa, Bivalent CrossMab (CH1-CL exchanged, WO 2009/080253), IgG1 knobs-into-holes) heavy 1: not shown heavy 2: not shown light 1: DIVMTQSPLSLPVTPGEPASISCRSSQSLVHSNGDTYFHWYLQKPGQSPQLLIYKVSNRFSGVPDRFSGSGSGTDFTLKISRVEAEDVGVYYCSQTTHAPFTFGQGTKLEIKRTVAAPSVFIFPPSDEQLKSGTASVVCLLNNFYPREAKVQWKVDNALQSGNSQESVTEQDSKDSTYSLSSTLTLSKADYEKHKVYACEVTHQGLSSPVTKSFNRGEC light 2: DIQMTQSPSSVSASVGDRVTITCQASQNIYSNLAWYQQKPGKAPKLLIYTASYLASGVPSRFSGSGSGTDYTLTISSLQPEDFATYYCQTAYYNSRPDTVAFGGGTKVEIKSSASTKGPSVFPLAPSSKSTSGGTAALGCLVKDYFPEPVTVSWNSGALTSGVHTFPAVLQSSGLYSLSSVVTVPSSSLGTQTYICNVNHKPSNTKVDKKVEPKSC	binding result [6]: no binding (tested: IL17 injected starting with 50 nM); Kd [7]: 0.25 nM; Kd [8]: 0.15 nM
				0.152	Bispecific <Tweak-IL-17> #5 antibody (bispecific antibody, human IgG1, kappa) heavy: not shown light: DIQMTQSPSSVSASVGDRVTITCQASQNIYSNLAWYQQKPGKAPKLLIYTASYLASGVPSRFSGSGSGTDYTLTISSLQPEDFATYYCQTAYYNSRPDTVAFGGGTKVEIKRTVAAPSVFIFPPSDEQLKSGTASVVCLLNNFYPREAKVQWKVDNALQSGNSQESVTEQDSKDSTYSLSSTLTLSKADYEKHKVYACEVTHQGLSSPVTKSFNRGEC	IL-6 IC50 [nM] per valency (IL-17 induced cytokine production, HFLS-RA) [9]: 1.32 nM; IL-8 IC50 [nM] per valency (IL-17 induced cytokine production, HFLS-RA) [9]: 1.12 nM

Continued, binder first:

Binder	Inhibition of IL-8 Secretion IC50 [ng/ml] (A375 cells) [1] [ng/mL]	IC50 [2] [ng/mL]	IC50 [3] [ng/mL]	t/2 diss [min] 25° C. [4] [min]	IC50 (nM) per valency, Tweak induced HFLS proliferation (CellTiter Glo) [5] [nM]	also measured
<TWEAK> 304 (rabbit) (antibody, V domains shown, Rabbit parent antibody) VH: QSLEESGGDLVKPGASLTLTCKASGFSFSSTYYMCWVRQAPGKGLEWIGCIYVGSSGAPYYASWAKGRFTISKTSSTTVALQMTSLTPADTATYVCTRSVHFGDLWGPGTLVTVSS VL: DVVMTQTPSPVSAAVGGTVTIKCQASQSIGNDLSWYQQKPGQRPKLLIYSVSTLASGVPSRFKGSGSGTEYSLTISDVQCADAATYYCQCIDYGNNYVGNTFGGGTEVVVK	109	2.8	3.6			
<TWEAK> 304chi (antibody, human IgG1, kappa, V domains shown, Chimer: rabbit variable domains with human kappa and human IgG1 constant regions) VH: QSLEESGGDLVKPGASLTLTCKASGFSFSSTYYMCWVRQAPGKGLEWIGCIYVGSSGAPYYASWAKGRFTISKTSSTTVALQMTSLTPADTATYVCTRSVHFGDLWGPGTLVTVSS VL: DVVMTQTPSPVSAAVGGTVTIKCQASQSIGNDLSWYQQKPGQRPKLLIYSVSTLASGVPSRFKGSGSGTEYSLTISDVQCADAATYYCQCIDYGNNYVGNTFGGGTEVVVKR	122	2.6		37		
<TWEAK> 301 (rabbit) (antibody, V domains shown, Rabbit parent antibody; purified antibody or hybridoma supernatant was used) VH: QSLEESGGGLVKPGASLTLTCTASGFTFNANYWICWVRQAPGKGLEWIACIYGGGNSGAYYASWATGRFTISRTSSTTVTLQMTSLTAADTATYFCARGPISRDLWGPGTLVTVSL VL: DVVMTQTPASVSEPVGGTVTIKCQASQSIYSSLAWYQQKPGQPPKLLIYDAFDLASGVSSRFTGSGSGTQFTLTISDLECADAATYYCQSTDYGNSWDGNPFGGGTEVVVT	128	3.4	4.7			
